# Experimental data reported in patent publication US20080227698A1, “OLIGOPEPTIDES FOR TREATMENT OF OSTEOPOROSIS AND OTHER BONE DISEASES AND METHODS THEREOF” (Washington University, priority 2005, published 2008).
# Target: LRP6 (Homo sapiens, UniProt O75581)
# Test: LRP6-mediated ^125I-DKK1 degradation in LRP6-transduced HT1080 cells
# Format: cell-based
# Design: plasmid pCS-Myc-hLRP6 containing the full-length human LRP6 cDNA; HA; expressed in transfected cells; host or cells: human HT1080 cells, stably transduced (pLNCX2 retroviral vector)
# Conditions: 500 nM competitor, 4 hours at 37° C.
# Procedure: Ligand degradation was performed using the methods as described (Li, Y., J. Biol. Chem. 275: 17187-17194, 2000). Briefly, 2×10^5 cells were seeded into 12-well dishes 1 day prior to assay. Pre-warmed assay buffer (minimal Eagle's medium containing 0.6% BSA with radioligand, 0.6 ml/well) was added to cell monolayers in the absence or the presence of unlabeled 500 nM RAP or 500 nM Mesd, followed by incubation for 4 hours at 37° C. Thereafter, the medium overlying the cell monolayers was removed and proteins were precipitated by addition of BSA to 10 mg/ml and trichloroacetic acid to 20%. […] After each time point, the plates were quickly placed on ice and the assay buffer was replaced with cold stop/strip solution. ^125I-anti-HA IgG that remained on the cell surface was stripped by incubation of cell monolayers with cold stop/strip solution for a total of 20 minutes (0.75 ml for 10 minutes, twice) and counted. Cell monolayers were then solubilized with low-SDS lysis buffer and counted. […] The fraction of internalized ^125I-anti-HA IgG after each time point was calculated and plotted.
# RAP is a receptor antagonist for members of the LDLR family, and is able to inhibit the binding of most known ligands of the LDLR family members. […] Cell-surface-bound Myc-tagged DKK proteins were fixed and detected by immunofluorescence staining with anti-Myc antibody. […]
# Sequence of LRP6 (O75581 20-1613): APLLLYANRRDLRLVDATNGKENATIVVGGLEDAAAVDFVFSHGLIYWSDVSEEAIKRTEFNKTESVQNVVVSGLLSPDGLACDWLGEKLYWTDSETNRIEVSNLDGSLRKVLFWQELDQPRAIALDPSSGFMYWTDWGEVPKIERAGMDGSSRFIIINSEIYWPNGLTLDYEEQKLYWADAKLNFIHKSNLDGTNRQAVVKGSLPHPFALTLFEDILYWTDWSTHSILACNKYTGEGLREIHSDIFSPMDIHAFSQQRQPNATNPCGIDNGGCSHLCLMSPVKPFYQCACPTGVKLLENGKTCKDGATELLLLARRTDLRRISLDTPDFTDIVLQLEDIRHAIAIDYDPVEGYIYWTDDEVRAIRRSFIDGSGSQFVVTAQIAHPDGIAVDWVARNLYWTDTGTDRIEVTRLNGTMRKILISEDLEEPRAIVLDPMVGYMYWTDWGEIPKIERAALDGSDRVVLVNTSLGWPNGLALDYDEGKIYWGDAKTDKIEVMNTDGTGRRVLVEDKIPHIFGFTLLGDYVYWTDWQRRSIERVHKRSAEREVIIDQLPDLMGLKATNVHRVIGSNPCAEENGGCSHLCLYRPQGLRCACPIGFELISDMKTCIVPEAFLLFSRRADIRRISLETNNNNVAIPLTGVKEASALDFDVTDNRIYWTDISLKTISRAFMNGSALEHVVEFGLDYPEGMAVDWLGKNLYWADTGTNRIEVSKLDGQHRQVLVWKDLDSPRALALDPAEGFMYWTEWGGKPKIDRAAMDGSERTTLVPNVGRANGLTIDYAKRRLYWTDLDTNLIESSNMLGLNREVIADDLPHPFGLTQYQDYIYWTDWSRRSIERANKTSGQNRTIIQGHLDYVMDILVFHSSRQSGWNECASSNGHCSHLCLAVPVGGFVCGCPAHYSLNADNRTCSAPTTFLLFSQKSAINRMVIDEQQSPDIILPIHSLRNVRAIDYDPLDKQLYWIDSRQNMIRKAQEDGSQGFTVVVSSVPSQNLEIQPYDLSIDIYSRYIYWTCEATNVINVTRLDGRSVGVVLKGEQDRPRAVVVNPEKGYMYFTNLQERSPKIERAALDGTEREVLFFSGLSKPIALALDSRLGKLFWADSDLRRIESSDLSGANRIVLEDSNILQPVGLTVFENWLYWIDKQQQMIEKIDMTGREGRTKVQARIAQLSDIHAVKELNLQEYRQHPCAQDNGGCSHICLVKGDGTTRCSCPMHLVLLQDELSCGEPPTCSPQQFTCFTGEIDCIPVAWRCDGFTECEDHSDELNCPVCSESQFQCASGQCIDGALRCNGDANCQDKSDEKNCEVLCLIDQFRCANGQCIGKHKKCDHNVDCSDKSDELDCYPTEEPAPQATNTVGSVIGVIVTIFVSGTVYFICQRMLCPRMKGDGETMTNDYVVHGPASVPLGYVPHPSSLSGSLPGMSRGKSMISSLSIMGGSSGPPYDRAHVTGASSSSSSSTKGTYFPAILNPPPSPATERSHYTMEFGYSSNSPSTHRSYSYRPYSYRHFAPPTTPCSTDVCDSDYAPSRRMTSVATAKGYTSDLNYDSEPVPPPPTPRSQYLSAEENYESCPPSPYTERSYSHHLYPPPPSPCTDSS
molecule,measurement,value
"Mesd: recombinant wild-type mouse Mesd, polyhistidine tail at the N-terminus, lacks the signal peptide, expressed in E. coli (protein, left off: small tags and cut ends, recombinant wild-type mouse Mesd, polyhistidine tail at the N-terminus, lacks the signal peptide, expressed in E. coli) ADTPGEATPPPRKKKDIRDYNDADMARLLEQWEKDDDIEEGDLPEHKRPSAPIDFSKLDPGKPESILKMTKKGKTLMMFVTVSGNPTEKETEEITSLWQGSLFNANYDVQRFIVGSDRAIFMLRDGSYAWEIKDFLVSQDRCAEVTLEGQMYPGKGGGSKEKNKTKPEKAKKKEGDRKPRASKEDNRAGSRREDL",Effect of excess unlabeled competitor on increased DKK1 degradation,abolished
